Where two headings read alike, the source gives them in different places. Each block holds one binder with its values, some of them ahead of it. Bridge positions count the residues as written; N and C are the ends. Square brackets hold non-standard residues; d marks the D form. * marks the point of attachment. 5FAM = O=C1OC2(c3ccc(O)cc3Oc3cc(O)ccc32)c2ccc(C(=O)*)cc21; Ach = 2-aminocyclohexane-1-carboxylic acid; hArg = N=C(N)NCCCC[C@H](N)C(=O)O; Dap = NC[C@H](N)C(=O)O; Pentanoyl = CCCCC(=O)*
Key:
[1] = target: T1, human PCSK9 (proprotein convertase subtilisin/kexin type 9), His-tagged, full-length (human, UniProt A8T644 31-152; Q8NBP7 153-692, limits assumed); assay: TR-FRET competition vs EGF(A)-Fc on His-PCSK9
T1 construct: The secreted protein is the prodomain plus the catalytic/Cys-rich part (N-terminus S153) after autocleavage; also called His-PCSK9; NARC-1
T1 sequence (A8T644 31-152 limits assumed, chain 1 of 2): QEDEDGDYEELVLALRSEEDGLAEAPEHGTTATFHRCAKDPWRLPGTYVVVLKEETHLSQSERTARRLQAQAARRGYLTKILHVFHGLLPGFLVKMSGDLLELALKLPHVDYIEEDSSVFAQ
T1 sequence (A8T644 other isoform, or with tags, fused parts or gaps limits assumed, chain 2 of 2): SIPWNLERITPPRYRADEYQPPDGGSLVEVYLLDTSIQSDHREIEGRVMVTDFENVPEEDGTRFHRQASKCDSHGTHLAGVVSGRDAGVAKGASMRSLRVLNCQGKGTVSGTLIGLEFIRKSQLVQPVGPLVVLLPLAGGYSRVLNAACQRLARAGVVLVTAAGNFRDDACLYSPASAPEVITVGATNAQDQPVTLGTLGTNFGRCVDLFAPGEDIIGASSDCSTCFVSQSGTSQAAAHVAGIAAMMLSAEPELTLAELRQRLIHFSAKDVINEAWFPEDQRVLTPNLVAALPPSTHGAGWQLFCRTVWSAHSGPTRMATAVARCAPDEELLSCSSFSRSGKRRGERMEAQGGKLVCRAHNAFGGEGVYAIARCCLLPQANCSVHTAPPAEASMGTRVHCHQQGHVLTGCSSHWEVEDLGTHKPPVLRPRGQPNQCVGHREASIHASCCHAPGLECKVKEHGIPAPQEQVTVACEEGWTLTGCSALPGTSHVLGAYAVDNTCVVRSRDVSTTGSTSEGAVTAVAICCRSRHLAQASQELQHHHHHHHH

[2] = target: T1, human PCSK9 (proprotein convertase …); assay: SPR, Biacore T100, NTA capture, single cycle kinetics (Method 2)
[3] = target: T1, human PCSK9 (proprotein convertase …); assay: SPR, SensiQ Pioneer FE, amine-coupled protein, OneStep gradient injection (Method 3)
[4] = target: T1, human PCSK9 (proprotein convertase …); assay: TR-FRET competition vs EGF(A)-Fc on His-PCSK9; remark: listed apart in the source
[5] = target: T1, human PCSK9 (proprotein convertase …); assay: SPR, Biacore T100, His-tagged protein captured on NTA chip (Method 1)
[6] = target: T1, human PCSK9 (proprotein convertase …); assay: TR-FRET competition vs EGF(A)-Fc on His-PCSK9; remark: listed apart in the source
PCSK9Δhelix = target: T2, PCSK9Δhelix (human, UniProt Q8NBP7 31-152); assay: TR-FRET competition, Ab20 as competitor
T2 construct: domain: prodomain; Construct M1-Q692 with engineered TEV site, cut with TEV; His-tagged (tag not written as a part); also called His-PCSK9Δhelix; open groove PCSK9Δhelix
T2 sequence (Q8NBP7 31-152 limits assumed, stated change not applied, form in doubt, chain 1 of 2): as the sequence (A8T644 31-152 limits assumed, chain 1 of 2) above
T2 sequence (Q8NBP7 other isoform, or with tags, fused parts or gaps mutant limits assumed, form in doubt, chain 2 of 2): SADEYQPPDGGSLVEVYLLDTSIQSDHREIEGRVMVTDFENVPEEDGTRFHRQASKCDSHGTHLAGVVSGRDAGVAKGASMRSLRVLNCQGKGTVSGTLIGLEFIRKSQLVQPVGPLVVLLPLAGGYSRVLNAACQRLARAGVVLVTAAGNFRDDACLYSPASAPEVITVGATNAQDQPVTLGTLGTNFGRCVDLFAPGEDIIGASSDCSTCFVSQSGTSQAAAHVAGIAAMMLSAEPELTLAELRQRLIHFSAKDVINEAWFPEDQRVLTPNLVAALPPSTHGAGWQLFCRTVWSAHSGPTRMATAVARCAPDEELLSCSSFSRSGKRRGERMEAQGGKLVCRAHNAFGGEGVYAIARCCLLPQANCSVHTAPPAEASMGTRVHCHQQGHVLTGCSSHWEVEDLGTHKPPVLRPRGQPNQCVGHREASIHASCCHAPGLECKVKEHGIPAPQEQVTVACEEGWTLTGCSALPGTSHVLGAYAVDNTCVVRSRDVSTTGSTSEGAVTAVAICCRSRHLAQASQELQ

- IC50 [1]: 720 nM
Binder: Ac-TVFTSWEEYLDWVGSGKLWNLG-NH2 [Compound 5]

- Kd [2]: 5740 nM
Binder: Ac-SPCRVGYTPC-NH2 (disulfide 3-10 (inferred)) [Compound 23]

- Kd [3]: 522000 nM
B1: Compound 97 (peptide)
peptide: Ac-GSGCWNL[Dap]RIGSQGC-NH2
modifications: disulfide 4-15
SMILES: CC[C@H](C)[C@@H]1NC(=O)[C@H](CCCNC(=N)N)NC(=O)[C@H](CN)NC(=O)[C@H](CC(C)C)NC(=O)[C@H](CC(N)=O)NC(=O)[C@H](Cc2c[nH]c3ccccc23)NC(=O)[C@@H](NC(=O)CNC(=O)[C@H](CO)NC(=O)CNC(C)=O)CSSC[C@@H](C(N)=O)NC(=O)CNC(=O)[C@H](CCC(N)=O)NC(=O)[C@H](CO)NC(=O)CNC1=O
notes: also called Ac-GSG-CWNL(Dpr)RIGSQGC-NH2

- Kd [3]: 26200 nM
- IC50 [4]: > 50000 nM
Binder: Ac-MPWNLVRIGLLR-NH2 [Compound 51]

- Kd [3]: 11000 nM
B2: Compound 73 (peptide)
peptide: Ac-CRLPWNLARIGLPC-NH2
modifications: disulfide 1-14
SMILES: CC[C@H](C)[C@@H]1NC(=O)[C@H](CCCNC(=N)N)NC(=O)[C@H](C)NC(=O)[C@H](CC(C)C)NC(=O)[C@H](CC(N)=O)NC(=O)[C@H](Cc2c[nH]c3ccccc23)NC(=O)[C@@H]2CCCN2C(=O)[C@H](CC(C)C)NC(=O)[C@H](CCCNC(=N)N)NC(=O)[C@@H](NC(C)=O)CSSC[C@@H](C(N)=O)NC(=O)[C@@H]2CCCN2C(=O)[C@H](CC(C)C)NC(=O)CNC1=O

- Kd [5]: 46100 nM
B3: Compound 28 (peptide)
peptide: SGDLMPWNLVRIGLLR
notes: Printed without N-terminal cap and without C-terminal amide

- IC50 [6]: 110 nM
- Kd [2]: 30.3 nM
B4: Compound 2 (peptide)
peptide: Ac-TVFTSWEEYLDWVGSGCWNLKRIGSQGC-NH2
modifications: disulfide 17-28
SMILES: CC[C@H](C)[C@@H]1NC(=O)[C@H](CCCNC(=N)N)NC(=O)[C@H](CCCCN)NC(=O)[C@H](CC(C)C)NC(=O)[C@H](CC(N)=O)NC(=O)[C@H](Cc2c[nH]c3ccccc23)NC(=O)[C@@H](NC(=O)CNC(=O)[C@H](CO)NC(=O)CNC(=O)[C@@H](NC(=O)[C@H](Cc2c[nH]c3ccccc23)NC(=O)[C@H](CC(=O)O)NC(=O)[C@H](CC(C)C)NC(=O)[C@H](Cc2ccc(O)cc2)NC(=O)[C@H](CCC(=O)O)NC(=O)[C@H](CCC(=O)O)NC(=O)[C@H](Cc2c[nH]c3ccccc23)NC(=O)[C@H](CO)NC(=O)[C@@H](NC(=O)[C@H](Cc2ccccc2)NC(=O)[C@@H](NC(=O)[C@@H](NC(C)=O)[C@@H](C)O)C(C)C)[C@@H](C)O)C(C)C)CSSC[C@@H](C(N)=O)NC(=O)CNC(=O)[C@H](CCC(N)=O)NC(=O)[C@H](CO)NC(=O)CNC1=O

- IC50 [6]: 340 nM
Binder: Ac-TVFTSWEEYLDWVGSGCWNLGRIGSQGC-NH2 (disulfide 17-28 (inferred)) [Compound 11]

- IC50 [6]: 190 nM
Binder: Ac-TVFTSWEEYLDWVGSGCWNLKRVGSQGC-NH2 (disulfide 17-28 (inferred)) [Compound 12]

- IC50 [1]: 1030 nM
Binder: Ac-TVFTSWEEYLDWVGGSGKLWNLGRV-NH2 [Compound 8]

- IC50 [1]: 390 nM
Binder: Ac-TVFTSWEEYLDWVGSGGKLWNLGRV-NH2 [Compound 9]

- Kd [3]: 4470 nM
Binder: 5FAM-SGSGCRLPWNLQRIGLPC-NH2 (disulfide 5-18 (inferred)) [Compound 34]

- fold improvement of affinity against Compound 192 (PCSK9Δhelix): > 6 fold
B5: Compound 229 (peptide)
peptide: Ac-MESFPGWNLV[hArg]IGLLR-NH2
SMILES: CC[C@H](C)[C@H](NC(=O)[C@H](CCCCNC(=N)N)NC(=O)[C@@H](NC(=O)[C@H](CC(C)C)NC(=O)[C@H](CC(N)=O)NC(=O)[C@H](Cc1c[nH]c2ccccc12)NC(=O)CNC(=O)[C@@H]1CCCN1C(=O)[C@H](Cc1ccccc1)NC(=O)[C@H](CO)NC(=O)[C@H](CCC(=O)O)NC(=O)[C@H](CCSC)NC(C)=O)C(C)C)C(=O)NCC(=O)N[C@@H](CC(C)C)C(=O)N[C@@H](CC(C)C)C(=O)N[C@@H](CCCNC(=N)N)C(N)=O

- Kd [3]: 6010 nM
Binder: 5FAM-SGSGCFIPWNLQRIGLLC-NH2 (disulfide 5-18 (inferred)) [Compound 33]

- Kd [3]: 16100 nM
- IC50 [4]: > 50000 nM
Binder: Ac-LMPWNLVRIGLLR-NH2 [Compound 50]

- Kd [3]: 46400 nM
B6: Compound 96 (peptide)
peptide: Ac-FCLWNLKRIGAQCWF-NH2
modifications: disulfide 2-13
SMILES: CC[C@H](C)[C@@H]1NC(=O)[C@H](CCCNC(=N)N)NC(=O)[C@H](CCCCN)NC(=O)[C@H](CC(C)C)NC(=O)[C@H](CC(N)=O)NC(=O)[C@H](Cc2c[nH]c3ccccc23)NC(=O)[C@H](CC(C)C)NC(=O)[C@@H](NC(=O)[C@H](Cc2ccccc2)NC(C)=O)CSSC[C@@H](C(=O)N[C@@H](Cc2c[nH]c3ccccc23)C(=O)N[C@@H](Cc2ccccc2)C(N)=O)NC(=O)[C@H](CCC(N)=O)NC(=O)[C@H](C)NC(=O)CNC1=O

- Kd [5]: 29000 nM
Binder: H-SGCFIPWNLQRIGLLC-NH2 (disulfide 3-16 (inferred)) [Compound 26]

- IC50 (PCSK9Δhelix): < 10000 nM
B7: Compound 112 (peptide)
peptide: Pentanoyl-WNLVRIGLTR-NH2
SMILES: CCCCC(=O)N[C@@H](Cc1c[nH]c2ccccc12)C(=O)N[C@@H](CC(N)=O)C(=O)N[C@@H](CC(C)C)C(=O)N[C@H](C(=O)N[C@@H](CCCNC(=N)N)C(=O)N[C@H](C(=O)NCC(=O)N[C@@H](CC(C)C)C(=O)N[C@H](C(=O)N[C@@H](CCCNC(=N)N)C(N)=O)[C@@H](C)O)[C@@H](C)CC)C(C)C

- IC50 [1]: 740 nM
Binder: Ac-TVFTSWEEYLDWVGSGKLWNL-NH2 [Compound 6]

- IC50 [1]: 500 nM
Binder: Ac-TVFTSWEEYLDWVGSGKLWN-NH2 [Compound 7]

- Kd [3]: 117000 nM
- IC50 [4]: > 50000 nM
Binder: Ac-ALMPWNLVRIGLLR-NH2 [Compound 45]

- Kd [3]: 96500 nM
- IC50 [4]: > 50000 nM
Binder: Ac-DLMPWNLVRIGLAR-NH2 [Compound 55]

- IC50 [6]: 9 nM
- Kd [5]: 2.07 nM
Binder: Ac-TVFTSWEEYLDWVGSGCRLPWNLQRIGLPC-NH2 (disulfide 17-30 (inferred), also called Pep2-8p4; Pep2-8_K9gvpep4) [Compound 19]

- IC50 [6]: 781 nM
Binder: Ac-TVFTSWEEYLDWVGSGGCRLPWNLQRIGLPC-NH2 (disulfide 18-31 (inferred)) [Compound 25]

- IC50 [6]: 471 nM
Binder: Ac-TVFTSWEEYLDWVGSGGCFLPWNLQRIGLLC-NH2 (disulfide 18-31 (inferred)) [Compound 38]

- Kd [3]: 223000 nM
- IC50 [4]: > 50000 nM
Binder: Ac-WNLVRIGLLR-NH2 [Compound 53]

- IC50 [6]: 10 nM
Binder: Ac-TVFTSWEEYLDWVGGSGCWNLKRIGSQGC-NH2 (disulfide 18-29 (inferred)) [Compound 13]

- IC50 [6]: 9 nM
Binder: Ac-TVFTSWEEYLDWVGSGGCWNLKRIGSQGC-NH2 (disulfide 18-29 (inferred)) [Compound 14]

- IC50 [1]: 490 nM
Binder: Ac-TVFTSWEEYLDWVGSGKLWNLGR-NH2 [Compound 4]

- Kd [3]: 17900 nM
- IC50 [4]: > 50000 nM
Binder: Ac-PWNLVRIGLLR-NH2 [Compound 52]

- IC50 [1]: 388 nM
Binder: Ac-TVFTSWEEYLDWVGSGKLWNLGRV-NH2 [Compound 1]

- Kd [3]: 118000 nM
Binder: Ac-CRL[Ach]WNLQRIGLPC-NH2 (disulfide 1-14) [Compound 82]

- IC50 [1]: 37 nM
- Kd [5]: 5.56 nM
Binder: Ac-TVFTSWEEYLDWVGSGDLMPWNLVRIGLLR-NH2 (also called Pep2-8p7; Pep2-8_K9gvpep7) [Compound 20]
